{"source": "paper doi:10.1101/2024.07.16.603716", "molecular_target": "VisA (SGO_2004) region containing its 7 G5 domains, residues 138-698, with a C-terminal His-tag (Streptococcus gordonii DL1)", "assay": "denaturing western blot", "data": [{"substance": "VisA (SGO_2004) region containing its 7 G5 domains, residues 138-698, with a C-terminal His-tag (domain or fragment)", "values": [{"measurement": "stoichiometry N", "value": 2}]}]}
